Test results as given in patent US20230174655A1 (published 2023).
Positions count from the first letter of the chain named. Numbers in names are those of the source.

T1: FcγRIIa type R extracellular domain with C-terminal His tag (human, UniProt P12318 34-217)
T1 chain: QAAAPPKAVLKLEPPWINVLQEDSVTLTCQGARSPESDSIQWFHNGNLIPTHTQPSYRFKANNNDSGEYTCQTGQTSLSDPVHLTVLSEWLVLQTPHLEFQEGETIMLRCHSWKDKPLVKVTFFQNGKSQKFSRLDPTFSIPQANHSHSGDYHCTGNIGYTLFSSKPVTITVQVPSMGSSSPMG

T2: FcγRIIa type R extracellular domain with C-terminal His tag (human, UniProt P12318 34-217)
T2 construct: extracellular domain; also called FcγRIIa R; FcγRIIaR
T2 sequence (looked up): T1 chain

B1: IL6R-2B253/IL6R-L (antibody, human IgG1, kappa)
heavy: QVQLQESGPGLVKPSETLSLTCAVSGHSISHDHAWSWVRQPPGEGLEWIGFISYSGITNYNPSLQGRVTISRDNSKNTLYLQMNSLRAEDTAVYYCARSLARTTAMDYWGEGTLVTVSSASTKGPSVFPLAPSSKSTSGGTAALGCLVKDYFPEPVTVSWNSGALTSGVHTFPAVLQSSGLYSLSSVVTVPSSSLGTQTYICNVNHKPSNTKVDKKVEPKSCDKTHTCPPCPAPDLLGGDSVFLFPPKPKDTLMISRTPEVTCVVVDVSHEDPEVKFNWYVDGVEVHNAKTKPREEQYNSTYRVVSVLTVLHQDWLNGKEYKCKMSNKALPAPIEKTISKAKGQPREPQVYTLPPSRDELTKNQVSLTCLVKGFYPSDIAVEWESNGQPENNYKTTPPVLDSDGSFFLYSKLTVDKSRWQQGNVFSCSVMHEALHNHYTQESLSLSP
light: not shown
notes: alteration printed: B233D/P238D/V323M; copies: 2 + 2
B2: IL6R-PD079/IL6R-L (antibody, human IgG1, kappa)
heavy: B1 heavy with D235E, G239A, M254Y, M325V, N436Y, E441K
light: not shown
notes: H chain: IL6R-F11 with P238D/G237A (EU numbering); also called P238D/G237A; copies: 2 + 2
B3: IL6R-BF202/IL6R-L (antibody, human IgG1, kappa)
heavy: B1 heavy with D235E, G239D, P273G, M325V, K328A, A332R
light: not shown
notes: alteration printed: G237D/P238D/P271G/K326A/A330R; copies: 2 + 2
B4: IL6R-PD095/IL6R-L (antibody, human IgG1, kappa)
heavy: B1 heavy with D235E, G239Y, M254Y, M325V, N436Y, E441K
light: not shown
notes: H chain: IL6R-F11 with P238D/G237Y (EU numbering); also called P238D/G237Y; copies: 2 + 2
B5: IL6R-BF188/IL6R-L (H chain SEQ ID NO 103) (antibody, human IgG1, kappa)
heavy: B1 heavy with G239D, H270D, P273G, M325V, A332K
light: not shown
notes: alteration printed: B233D/G237D/P238D/H268D/P271G/A330K; copies: 2 + 2
B6: IL6R-BF203/IL6R-L (antibody, human IgG1, kappa)
heavy: B1 heavy with D235E, G239D, P273G, M325V, A332R
light: not shown
notes: copies: 2 + 2
B7: IL6R-PD080/IL6R-L (antibody, human IgG1, kappa)
heavy: B1 heavy with D235E, G239D, M254Y, M325V, N436Y, E441K
light: not shown
notes: H chain: IL6R-F11 with P238D/G237D (EU numbering); also called P238D/G237D; copies: 2 + 2
B8: IL6R-BF063/IL6R-L (antibody, human IgG1, kappa)
heavy: B1 heavy with D235E, L236Y, M325V, K328A, A332K
light: not shown
notes: alteration printed: L234Y/P236D/K326A/A330K; also called IL6R-BF089/IL6R-L; copies: 2 + 2
B9: IL6R-BF185/IL6R-L (H chain SEQ ID NO 98) (antibody, human IgG1, kappa)
heavy: B1 heavy with L236Y, P273G, M325V, K328A, A332K
light: not shown
notes: alteration printed: B233D/L234Y/P238D/P271G/K326A/A330K; also called IL6R-BF138/IL6R-L; copies: 2 + 2
B10: IL6R-BF179/IL6R-L (antibody, human IgG1, kappa)
heavy: B1 heavy with D235E, G239D, P273G, M325V, K328A, A332K
light: not shown
notes: alteration printed: G237D/P238D/P271G/K326A/A330K; copies: 2 + 2
B11: IL6R-PD081/IL6R-L (antibody, human IgG1, kappa)
heavy: B1 heavy with D235E, G239E, M254Y, M325V, N436Y, E441K
light: not shown
notes: H chain: IL6R-F11 with P238D/G237E (EU numbering); also called P238D/G237E; copies: 2 + 2
B12: IL6R-PD087/IL6R-L (antibody, human IgG1, kappa)
heavy: B1 heavy with D235E, G239M, M254Y, M325V, N436Y, E441K
light: not shown
notes: H chain: IL6R-F11 with P238D/G237M (EU numbering); also called P238D/G237M; copies: 2 + 2
B13: IL6R-PD082/IL6R-L (antibody, human IgG1, kappa)
heavy: B1 heavy with D235E, G239F, M254Y, M325V, N436Y, E441K
light: not shown
notes: H chain: IL6R-F11 with P238D/G237F (EU numbering); also called P238D/G237F; copies: 2 + 2
B14: IL6R-BF147/IL6R-L (antibody, human IgG1, kappa)
heavy: B1 heavy with D235E, L236Y, G239D, M325V, K328A, A332K
light: not shown
notes: alteration printed: L234Y/G237D/P238D/K326A/A330K; copies: 2 + 2
B15: IL6R-BF207/IL6R-L (antibody, human IgG1, kappa)
heavy: B1 heavy with M325V, A332R
light: not shown
notes: alteration printed: B233D/P298D/A330R; copies: 2 + 2
B16: IL6R-BF206/IL6R-L (antibody, human IgG1, kappa)
heavy: B1 heavy with P273G, M325V, A332R
light: not shown
notes: alteration printed: BB233D/P238D/P271G/A330R; copies: 2 + 2
B17: IL6R-BF200/IL6R-L (antibody, human IgG1, kappa)
heavy: B1 heavy with L236Y, G239D, P273G, M325V, K328D, A332R
light: not shown
notes: copies: 2 + 2
B18: IL6R-BF192/IL6R-L (antibody, human IgG1, kappa)
heavy: B1 heavy with H270D, P273G, Y298D, M325V, A332K
light: not shown
notes: alteration printed: B233D/P238D/H268D/P271G/Y296D/A330K; copies: 2 + 2
B19: IL6R-BF194/IL6R-L (antibody, human IgG1, kappa)
heavy: B1 heavy with L236Y, G239D, H270D, P273G, M325V, K328A, A332K
light: not shown
notes: alteration printed: B233D/L234Y/G237D/P238D/H268D/P271G/K326A/A330K; copies: 2 + 2

Legend:
[1] = target: T1, FcγRIIa type R extracellular domain …; experiment: SPR (Biacore), antibody captured, FcgR analyte
Text: (§1) In the table, SEQ ID NO refers to the SEQ ID NO of the H chain of the evaluated variant, and alteration refers to the alteration introduced into IL6R-B3 (SEQ ID NO: 40). […] Furthermore, KD(IIaR)/KD(IIb) and KD(IIaH)/KD(IIb) in the table respectively represent the value obtained by dividing the KD value of each variant for FcγRIIaR by the KD value of each variant for FcγRIIb, and the value obtained by dividing the KD value of each variant for FcγRIIaH by the KD value of each variant for FcγRIIb. KD(IIb) of the parent polypeptide/KD(IIb) of the altered polypeptide refers to the value obtained by dividing the KD value of the parent polypeptide for FcγRIIb by the KD value of each variant for FcγRIIb.
(§2) Kinetic analyses for calculating the KD values of each altered antibody for FcγR were performed according to the following method. First, antibodies of interest were captured onto the above-mentioned sensor chips, and an Fcγ receptor diluted with the running buffer was allowed to interact. The Biacore™ Evaluation Software was used to globally fit the measured results to the obtained sensorgram using the 1:1 Langmuir binding model, and the association rate constant ka (L/mol/s) and the dissociation rate constant kd (1/s) were calculated; and from those values the dissociation constants KD (mol/L) were calculated.

[2] = target: T3, FcγRIIIa type V extracellular domain with C-terminal His tag (human, UniProt P08637 17-208); experiment: SPR (Biacore), antibody captured, FcgR analyte
T3 construct: extracellular domain; also called FcIIIaV; FcgRIIIaV; not shown: His tag at the C terminus
T3 sequence (P08637 17-208 F176V): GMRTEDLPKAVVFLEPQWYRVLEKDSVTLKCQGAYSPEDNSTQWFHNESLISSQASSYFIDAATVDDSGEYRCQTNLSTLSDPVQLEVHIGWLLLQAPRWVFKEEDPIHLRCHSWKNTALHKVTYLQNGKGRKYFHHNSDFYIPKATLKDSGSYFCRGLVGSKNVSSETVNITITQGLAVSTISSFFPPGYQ
Text: as §1, §2

[3] = target: T2, FcγRIIa type R extracellular domain …; experiment: SPR (Biacore), Reference Example 2
Text: Furthermore, KD(IIaR)/KD(IIb) and KD(IIaH)/KD(IIb) in the table respectively show the value obtained by dividing the KD value of each variant for FcγRIIaR by the KD value of each variant for FcγRIIb, and the value obtained by dividing the KD value of each variant for FcγRIIaH by the KD value of each variant for FcγRIIb. KD(IIb) of the parent polypeptide/KD(IIb) of the altered polypeptide refers to a value obtained by dividing the KD value of the parent polypeptide for FcγRIIb by the KD value of each variant for FcγRIIb.
as §2

Binder | Kd [1] [µM] | Kd [2] [µM] | Kd [3] [µM]
B1 | 0.05 | 5 | –
B2 | – | – | 32
B3 | 0.012 | – | –
B4 | – | – | 7.9
B5 | 1 | – | –
B6 | 0.99 | – | –
B7 | – | – | 21
B8 | 0.064 | – | –
B9 | 26 | – | –
B10 | 0.014 | – | –
B11 | – | – | 38
B12 | – | – | 22
B13 | – | – | 14
B14 | 0.83 | – | –
B15 | 19 | – | –
B16 | 3.1 | 6.9 | –
B17 | 0.63 | – | –
B18 | 2.8 | – | –
B19 | 0.82 | – | –
